The text below walks through data of US20220313780A1, “METHODS AND COMPOSITIONS FOR TREATING INFLAMMATORY CONDITIONS” (THE SCRIPPS RESEARCH INSTITUTE, priority 2019, published 2022).

One test has as its target T1, PAR1 (Homo sapiens, UniProt P25116).
T1 construct: endogenous in cells; host or cells: THP1-null (wildtype) cells, PMA-differentiated
T1 sequence (P25116 22-425): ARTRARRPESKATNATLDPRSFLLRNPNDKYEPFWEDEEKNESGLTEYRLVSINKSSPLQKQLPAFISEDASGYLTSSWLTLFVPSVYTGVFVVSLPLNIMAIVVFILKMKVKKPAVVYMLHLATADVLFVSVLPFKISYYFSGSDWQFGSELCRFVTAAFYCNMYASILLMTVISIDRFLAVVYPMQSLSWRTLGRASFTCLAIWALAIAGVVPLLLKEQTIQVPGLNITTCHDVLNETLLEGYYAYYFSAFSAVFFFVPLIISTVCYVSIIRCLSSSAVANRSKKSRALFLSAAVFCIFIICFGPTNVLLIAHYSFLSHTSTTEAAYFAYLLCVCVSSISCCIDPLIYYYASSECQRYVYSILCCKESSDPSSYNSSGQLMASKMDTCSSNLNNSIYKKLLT
The test can be described thus: Caspase 1 activity assay in THP1 cells after inhibition of PAR1 (WEDE15, ATAP2, SCH79797). The test is classed as cell-based. Particulars: TR47 50 μM or P3R 50 μM; for effect of PAR1 blocking antibody ATAP2 on reduction of caspase 1 activity: ATAP2 10 μg/mL for 15 minutes before APC 4 μg/mL; for effect of PAR1 small molecule antagonist SCH79797 on reduction of caspase 1 activity: SCH79797 20 μM for 20 minutes before APC 4 μg/mL; for effect of PAR1 blocking antibody WEDE15 on reduction of caspase 1 activity: WEDE15 20 μg/mL for 15 minutes before APC 4 μg/mL. As to the method:
THP1 or (A) NLRP3 deficient cells (THP1-defNLRP3) cells were plated at a final concentration of 1×10^6/mL in 96 well plates and incubated with PMA (0.5 μM) for 3 hours 37° C. in supplemented RPMI. Media was subsequently changed every 24 hours for 3 days. In brief, selected wells were treated with APC (4 μg/mL), TR47 (50 μM) or P3R (50 μM) for 1 hour, washed with DPBS, and incubated with LPS (1 μg/mL) for 3 hours at 37° C. in serum-free RPMI. After a DPBS wash, cells were incubated with ATP (5 mM) in the presence or absence of 10 μM YVAD (caspase 1 inhibitor) or 2.5 μM ZVAD (pan-caspase inhibitor) for 45 minutes at 37° C. In (B), after PMA differentiation, select wells were treated with APC (4 μg/mL), TR47 (50 μM) or P3R (50 μM) for 1 hour, washed with DPBS, and incubated with LPS (1 μg/mL) for 3 hours at 37° C. in serum-free RPMI. Cells were washed with DPBS before being treated with the NLRP3 inhibitor MCC950 (10 μM) or DMSO for 30 minutes. Again, cells were washed with DPBS and incubated with ATP (5 mM) in the presence or absence of 10 μM YVAD (caspase 1 inhibitor) or 2.5 μM ZVAD (pan-caspase inhibitor) for 45 minutes prior to performing the caspase 1 activity following manufacturer's directions measuring luminescence. In (C-F) prior to APC, TR47 or P3R treatment, cells were incubated with antibodies or inhibitors. In (C) cell were incubated with the blocking EPCR antibody, RCR-252 (50 μg/mL); (D) mouse monoclonal antibody to PAR3, clone 19b (clonel9b; 25 μg/mL) for 30 minutes. In (E) cells were treated with either mouse monoclonal antibodies to PAR1, WEDE15 (20 μg/mL) or ATAP2 (10 μg/mL) for 15 minutes. In (F) cells were treated with the small molecule PAR1 inhibitor, SCH79797 (SCH; 20 μM) for 20 minutes. Following antibody or small molecule treatments (C-F) selected wells were treated with APC (4 μg/mL), TR47 (50 μM) or P3R (50 μM) for 1 hour, washed with DPBS, and incubated with LPS (1 μg/mL) for 3 hours at 37° C. in serum-free RPMI. After a DPBS wash, cells were incubated with ATP (5 mM) in the presence or absence of 10 μM YVAD (caspase 1 inhibitor) or 2.5 μM ZVAD (pan-caspase inhibitor) for 45 minutes at 37° C., prior to performing the caspase 1 activity assay following manufacturer's directions measuring luminescence (relative luminescent units, RLU). (A-F) Data points represent mean±SD of at least 3 independent experiments. *P<0.05 (vs. LPS+ATP); #P<0.05 (vs. LPS+ATP & APC, TR47 or P3R); ##P<0.005 (vs. LPS+ATP & APC, TR47 or P3R); n.s. not significant.
Caspase 1 assay. THP1-null (wildtype cells) or NLRP3-deficient THP1-(defNLRP3) cells were plated at a final concentration of 1×10^6/mL in 96 well plates and incubated with PMA (0.5 μM) for 3 hours 37° C. in supplemented RPMI. Media was subsequently changed every 24 hours for 3 days. Various subsets of wells were selected and cells were treated for 60 minutes at 37° C. in serum-free RPMI with various concentrations of APC, TR47 or P3R. Following DPBS wash, cells were incubated with LPS (lipopolysaccharide) (1 μg/mL) for 3 hours at 37° C. in serum-free RPMI to prime the inflammasome. After a DPBS wash, to fully activate caspase 1 activity, cells were incubated with ATP (5 mM), in the presence or absence of 10 μM YVAD (caspase 1 inhibitor), and 2.5 μM ZVAD (pan-caspase inhibitor) for 45 minutes at 37° C., prior to performing the caspase 1 activity assay following the manufacturer's (Promega) directions; caspase 1 activity was monitored as luminescence changes due to substrate hydrolysis and reported as relative luminescent units (RLU).^15 In select experiments, caspase 1 activity of experimental conditions were normalized to YVAD (caspase 1 inhibitor) conditions and expressed as normalized caspase 1 activity.

The target of a further test is T2, EPCR (Homo sapiens, UniProt Q9UNN8).
T2 construct: endogenous in cells; host or cells: THP1-null (wildtype) cells, PMA-differentiated
T2 sequence (Q9UNN8 18-238): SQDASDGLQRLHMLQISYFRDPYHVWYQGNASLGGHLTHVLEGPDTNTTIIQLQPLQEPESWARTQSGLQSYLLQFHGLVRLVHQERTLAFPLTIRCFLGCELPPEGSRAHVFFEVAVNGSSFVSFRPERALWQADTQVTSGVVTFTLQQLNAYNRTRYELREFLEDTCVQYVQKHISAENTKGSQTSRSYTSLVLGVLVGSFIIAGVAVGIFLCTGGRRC
The test can be described thus: Caspase 1 activity assay in THP1 cells after blocking EPCR with antibody RCR-252. Type of test: cell-based. Particulars: RCR-252 50 μg/mL before APC 4 μg/mL, TR47 50 μM or P3R 50 μM. As to the method:
THP1 or (A) NLRP3 deficient cells (THP1-defNLRP3) cells were plated at a final concentration of 1×10^6/mL in 96 well plates and incubated with PMA (0.5 μM) for 3 hours 37° C. in supplemented RPMI. Media was subsequently changed every 24 hours for 3 days. In brief, selected wells were treated with APC (4 μg/mL), TR47 (50 μM) or P3R (50 μM) for 1 hour, washed with DPBS, and incubated with LPS (1 μg/mL) for 3 hours at 37° C. in serum-free RPMI. After a DPBS wash, cells were incubated with ATP (5 mM) in the presence or absence of 10 μM YVAD (caspase 1 inhibitor) or 2.5 μM ZVAD (pan-caspase inhibitor) for 45 minutes at 37° C. […] Again, cells were washed with DPBS and incubated with ATP (5 mM) in the presence or absence of 10 μM YVAD (caspase 1 inhibitor) or 2.5 μM ZVAD (pan-caspase inhibitor) for 45 minutes prior to performing the caspase 1 activity following manufacturer's directions measuring luminescence. […] After a DPBS wash, cells were incubated with ATP (5 mM) in the presence or absence of 10 μM YVAD (caspase 1 inhibitor) or 2.5 μM ZVAD (pan-caspase inhibitor) for 45 minutes at 37° C., prior to performing the caspase 1 activity assay following manufacturer's directions measuring luminescence (relative luminescent units, RLU). […]

In the case of “GAPPNSFEEFPFSALEGWTGATIT [P3R, PAR3-derived 24-mer peptide]”, in the test with PAR1, the “effect of PAR1 blocking antibody ATAP2 on reduction of caspase 1 activity” value is on record as “None of the PAR1-targeted inhibitors statistically significantly reduced the anti-inflammatory activity”, the “effect of PAR1 small molecule antagonist SCH79797 on reduction of caspase 1 activity” value was “None of the PAR1-targeted inhibitors statistically significantly reduced the anti-inflammatory activity” and the “effect of PAR1 blocking antibody WEDE15 on reduction of caspase 1 activity” value is “None of the PAR1-targeted inhibitors statistically significantly reduced the anti-inflammatory activity”. Moreover, the “effect of blocking EPCR on inhibition of caspase 1 activity” value with EPCR is reported as “though trending, did not reach significance”.

As to “NPNDKYEPFWEDEEKNESGL [TR47, PAR1-derived 20 amino acid peptide]”, in the test with PAR1, the “effect of PAR1 blocking antibody ATAP2 on reduction of caspase 1 activity” value is on record as “not by ATAP2”; the “effect of PAR1 small molecule antagonist SCH79797 on reduction of caspase 1 activity” value is “inhibited by SCH79797 and WEDE15”; the “effect of PAR1 blocking antibody WEDE15 on reduction of caspase 1 activity” value was “inhibited by SCH79797 and WEDE15”. For the same sequence, the “effect of blocking EPCR on inhibition of caspase 1 activity” value with EPCR is listed as “significant loss in their inhibition of caspase 1 activity”.
